According to PMC12838881, “Engineering Single-Chain Antibody Fragment (scFv) Variants Targeting A Disintegrin and Metalloproteinase-17 (ADAM-17)” (Biomolecules, 2025):

Target: T1, a disintegrin and metalloproteinase-17 catalytic domain (6xHis-ADAM-17cd) (UniProt P78536)
T1 construct: ADAM-17 (TACE), catalytic domain; also called TACE; tumor necrosis factor-α-converting enzyme; source: bought: Enzo Life Sciences
Experiment: flow cytometry on cells; scFv variants or TIMP-3 displayed on yeast; soluble 6xHis-ADAM-17cd or MMP-9cd at 100 nM (legend and results; the methods say 150 nM); PBSA pH 7.4; binding read with anti-6xHis Alexa Fluor 647, expression with anti-c-Myc and Alexa Fluor 488; median binding normalised to expression
Details: one partner purified

T1 sequence (P78536 215-474): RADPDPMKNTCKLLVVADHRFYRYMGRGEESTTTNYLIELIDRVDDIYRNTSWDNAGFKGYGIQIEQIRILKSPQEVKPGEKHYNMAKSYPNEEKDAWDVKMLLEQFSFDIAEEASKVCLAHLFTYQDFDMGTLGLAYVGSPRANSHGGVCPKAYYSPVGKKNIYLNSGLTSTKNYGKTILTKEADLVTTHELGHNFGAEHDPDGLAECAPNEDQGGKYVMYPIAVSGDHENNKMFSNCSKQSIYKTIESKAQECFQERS

Row | binding per expression signal, fold of TIMP-3 [fold] | binding result | Binder
1 | ≤ 3 | – | SynAb-A7 scFv displayed on yeast (scFv, V domains shown, light chain variable domain as printed; glycine-rich peptide linker between VL and VH; heavy chain variable domain as printed; CDR-H3 KKEYYSR; VL-VH orientation; source: yeast surface display, S. cerevisiae RJY100, pCTCON2 vector; not shown: Aga2p, N-terminal, kept) VH: EVQLVQSGAEVKKPGESLKISCKGSGYSFTSYWIGWVRQMPGKGLEWMGIIYPGDSDTRYSPSFQGQVTISADKSISTAYLQWSSLKASDTAVYYCARKKEYYSRFDYWGQGTLVTVSS VL: not shown
2 | – | binds | SynAb-A6 scFv displayed on yeast (scFv, V domains shown, light chain variable domain as printed; glycine-rich peptide linker between VL and VH; heavy chain variable domain as printed; CDR-H3 TDLHVHVYY; VL-VH orientation; source: yeast surface display, S. cerevisiae RJY100, pCTCON2 vector; not shown: Aga2p, N-terminal, kept) VH: EVQLVQSGAEVKKPGESLKISCKGSGYSFTSYWIGWVRQMPGKGLEWMGIIYPGDSDTRYSPSFQGQVTISADKSISTAYLQWSSLKASDTAVYYCARTDLHVHVYYFDYWGQGTLVTVSS VL: not shown
3 | – | binds | SynAb-A9 scFv displayed on yeast (scFv, V domains shown, light chain variable domain as printed; glycine-rich peptide linker between VL and VH; heavy chain variable domain as printed; CDR-H3 PGGYYDMEYLY; VL-VH orientation; source: yeast surface display, S. cerevisiae RJY100, pCTCON2 vector; not shown: Aga2p, N-terminal, kept) VH: QLQLQESGPGLVKPSETLSLTCTVSGGSISSSSYYWGWIRQPPGKGLEWIGSIYYSGSTYYNPSLKSRVTISVDTSKNQFSLKLSSVTAADTAVYYCARPGGYYDMEYLYFDYWGQGTLVTVSS VL: not shown
